Data set [1] deals with microtubules (taxol-stabilized; polymer of alpha- and beta-tubulin). In words: cell-based or functional assay.
The data set “cross-linking” deals with the molecule itself. In words: cross-linking.

Broadly, the stoichiometry N is the number of molecules, sites or subunits per partner or assembly.

B1: Cys344 Cys-light K560-GFP (neck coiled-coil mutant Tyr344Cys) (domain or fragment, human, UniProt P33176 1-560, looked up)
chain: MADLAESNIKVMCRFRPLNESEVNRGDKYIAKFQGEDTVVIASKPYAFDRVFQSSTSQEQVYNDAAKKIVKDVLEGYNGTIFAYGQTSSGKTHTMEGKLHDPEGMGIIPRIVQDIFNYIYSMDENLEFHIKVSYFEIYLDKIRDLLDVSKTNLSVHEDKNRVPYVKGATERFVSSPDEVMDTIDEGKSNRHVAVTNMNEHSSRSHSIFLINVKQENTQTEQKLSGKLYLVDLAGSEKVSKTGAEGAVLDEAKNINKSLSALGNVISALAEGSTYVPYRDSKMTRILQDSLGGNARTTIVICCSPSSYNESETKSTLLFGQRAKTIKNTVSVNVELTAEQWKKKCEKEKEKNKILRNTIQWLENELNRWRNGETVPIDEQFDKEKANLEAFTVDKDITLTNDKPATAIGVIGNFTDAERRKAEEEIAKLYKQLDDKDEEINQQSQLVEKLKTQMLDQEELLASTRRDQDNMQAELNRLQAENDASKEEVKEVLQALEELAVNYDQKSQEVEDKTKEYELLSDELNQKSATLASIDAELQKLKEMTNHQKKRAAEMMASLLK
On to B1, for which, in data set [1], the “Km(MT) of the microtubule-stimulated ATPase, with 200 μM DTNB” value (shortened to “Km(MT) … with 200 μM DTNB”) turned out to be 1.24 μM tubulin and the “Km(MT) of the microtubule-stimulated ATPase, without DTNB” value (shortened to “Km(MT) … without DTNB”) was found to be 0.84 μM tubulin. In the data set “cross-linking”, the “stoichiometry N” value was found to be 2.

B2: Cys337/Cys344 Cys-light K560-GFP (neck coiled-coil double mutant Ala337Cys/Tyr344Cys) (domain or fragment, human, UniProt P33176 1-560, looked up)
chain: MADLAESNIKVMCRFRPLNESEVNRGDKYIAKFQGEDTVVIASKPYAFDRVFQSSTSQEQVYNDAAKKIVKDVLEGYNGTIFAYGQTSSGKTHTMEGKLHDPEGMGIIPRIVQDIFNYIYSMDENLEFHIKVSYFEIYLDKIRDLLDVSKTNLSVHEDKNRVPYVKGATERFVSSPDEVMDTIDEGKSNRHVAVTNMNEHSSRSHSIFLINVKQENTQTEQKLSGKLYLVDLAGSEKVSKTGAEGAVLDEAKNINKSLSALGNVISALAEGSTYVPYRDSKMTRILQDSLGGNARTTIVICCSPSSYNESETKSTLLFGQRAKTIKNTVSVNVELTCEQWKKKCEKEKEKNKILRNTIQWLENELNRWRNGETVPIDEQFDKEKANLEAFTVDKDITLTNDKPATAIGVIGNFTDAERRKAEEEIAKLYKQLDDKDEEINQQSQLVEKLKTQMLDQEELLASTRRDQDNMQAELNRLQAENDASKEEVKEVLQALEELAVNYDQKSQEVEDKTKEYELLSDELNQKSATLASIDAELQKLKEMTNHQKKRAAEMMASLLK
Consider B2, for which, in data set [1], the “Km(MT) … with 200 μM DTNB” value came out at 1.51 μM tubulin and the “Km(MT) … without DTNB” value was determined as 1.19 μM tubulin.

B3: Cys337 Cys-light K560-GFP (neck coiled-coil mutant Ala337Cys) (domain or fragment, human, UniProt P33176 1-560, looked up)
chain: MADLAESNIKVMCRFRPLNESEVNRGDKYIAKFQGEDTVVIASKPYAFDRVFQSSTSQEQVYNDAAKKIVKDVLEGYNGTIFAYGQTSSGKTHTMEGKLHDPEGMGIIPRIVQDIFNYIYSMDENLEFHIKVSYFEIYLDKIRDLLDVSKTNLSVHEDKNRVPYVKGATERFVSSPDEVMDTIDEGKSNRHVAVTNMNEHSSRSHSIFLINVKQENTQTEQKLSGKLYLVDLAGSEKVSKTGAEGAVLDEAKNINKSLSALGNVISALAEGSTYVPYRDSKMTRILQDSLGGNARTTIVICCSPSSYNESETKSTLLFGQRAKTIKNTVSVNVELTCEQWKKKYEKEKEKNKILRNTIQWLENELNRWRNGETVPIDEQFDKEKANLEAFTVDKDITLTNDKPATAIGVIGNFTDAERRKAEEEIAKLYKQLDDKDEEINQQSQLVEKLKTQMLDQEELLASTRRDQDNMQAELNRLQAENDASKEEVKEVLQALEELAVNYDQKSQEVEDKTKEYELLSDELNQKSATLASIDAELQKLKEMTNHQKKRAAEMMASLLK
On to B3, for which, in data set [1], the “Km(MT) … with 200 μM DTNB” value is 1.59 μM tubulin and the “Km(MT) … without DTNB” value was 1.2 μM tubulin. Further, the “stoichiometry N” value in “cross-linking” came to 2.

The values are drawn from publication PMC2174365 (The Journal of Cell Biology, 2000).
